# Laboratory results: PMC10112802
# B1: KSHV viral interferon regulatory factor 1, wild type, Flag-tagged (vIRF1-WT-Flag) [modified: lysine propionylation at Lys406 and Lys442 and lysine acetylation, as found on vIRF1 … (parent)
# chain 1: MDPGQRPNPFGAPGAIPKKPCLSQGSPGTSGSGAPCDEPSRSESPGEGPSGTGGSAAAGDITRQAVVAAITEWSRTRQLRISTGASEGKASIKDWIVCQVNSGKFPGVEWEDEERTRFRIPVTPLADPCFEWRRDGELGVVYIRERGNMPVDASFKGTRGRRRMLAALRRTRGLQEIGKGISQDGHHFLVFRVRKPEEEQCVECGVVAGAVHDFNNMARLLQEGFFSPGQCLPGEIVTPVPSCTTAEGQEAVIDWGRLFIRMYYNGEQVHELLTTSQSGCRISSALRRDPAVHYCAVGSPGQVWLPNVPNLACEIAKRELCDTLDACAKGILLTSSCNGIFCVCYHNGPVHFIGNTVPPDSGPLLLPQGKPTRIFNPNTFLVGLANSPLPAPSHVTCPLVKLWLGKPVAVGKLEPHAPSPRDFAARCSNFSDACVVLEIMPKPLWDAMQ
# chain 2: MGTPKPRILPWLVSQLDLGQLEGVAWVNKSRTRFRIPWKHGLRQDAQQEDFGIFQAWAEATGAYVPGRDKPDLPTWKRNFRSALNRKEGLRLAEDRSKDPHDPHKIYEFVNSGVGDFSQPDTSPDTNGGGSTSDTQEDILDELLGNMVLAPLPDPGPPSLAVAPEPCPQPLRSPSLDNPTPFPNLGPSENPLKRLLVPGEEWEFEVTAFYRGRQVFQQTISCPEGLRLVGSEVGDRTLPGWPVTLPDPGMSLTDRGVMSYVRHVLSCLGGGLALWRAGQWLWAQRLGHCHTYWAVSEELLPNSGHGPDGEVPKDKEGGVFDLGPFIVDLITFTEGSGRSPRYALWFCVGESWPQDQPWTKRLVMVKVVPTCLRALVEMARVGGASSLENTVDLHISNSHPLSLTSDQYKAYLQDLVEGMDFQGPGES
# Variants of: B1
# Assay: co-immunoprecipitation (anti-Myc IP, anti-Flag Western blot)
# Details: with Myc-tagged IRF3 (IRF3-Myc); HEK293T cells; parent: 1
row,Variant,ratio to parent
1,chain 1 K317R K329R K370R K401R K406R K412R K442R,0.1
2,chain 1 K89R K93R K104R K156R K179R K195R,0.7
3,chain 1 K442R,0.2
4,chain 1 K406R,0.5
